Experimental data from US8604172B2, “Humanized antibody compositions and methods for binding lysophosphatidic acid” (Lpath, Inc., priority 2009, dated 2013).

Assays:
Thermostability (Tm) = format: physicochemical
Protocol: The thermostability of the humanized antibodies were studied by measuring their LPA-binding affinity (EC50) after heating using the direct binding ELISA. Antibodies dissolved in PBS (Cellgo, Cat. No 021-040) were diluted to 25 ug/ml and incubated at 60° C., 65° C., 70° C., 75° C. and 80° C. for 10 min. Prior to increasing the temperature, 10 ul of each sample was removed and diluted with 90 ul of PBS and stored on ice. The samples were then vortexed briefly and the insoluble material was removed by centrifugation for 1 min at 13,000 rpm. The binding activity of the supernatant was determined using the direct LPA-binding ELISA and compared to a control, which consisted of the same sample without heat treatment.

SKOV3 tumor = assay: SKOV3 ovarian tumor progression in nude mice; format: in vivo; details: with lowering of serum and ascites IL-8, IL-6, GM-CSF
Protocol: Human mAb LT3015 reduced ovarian tumor SKOV3 progression and circulating cytokines in biological fluids. Nude mice were engrafted with either 10 mg/kg LT3015, vehicle, or 2 mg/kg paclitaxel (Taxol). After 56 days, mice were sacrificed and the peritoneal cavities were analyzed for tumor burden and ascites fluid accumulation. Tumors were harvested and final tumor weights were determined along with ascites volumes. Data were analyzed by ANOVA and student's t-test analysis. […] Serum and ascites levels of IL-6, IL-8, GM-CSF and VEGF were measured using ELISA kits from R&D systems, Minneapolis Minn.

B1: LT3000: Murine anti-LPA monoclonal antibody clone B7, IgG1k, renamed Lpathomab, also known as LT3000; hybridoma 504B7.1, ATCC PTA-8420 (antibody, V domains shown)
VH: QVQLQQSGAELVRPGTSVKVSCKASGYGFINYLIEWIKQRPGQGLEWIGLINPGSDYTNYNENFKGKATLTADKSSSTAYMHLSSLTSEDSAVYFCARRFGYYGSGNYFDYWGQGTTLTVSS
VL: DVVMTQTPLSLPVSLGDQASISCTSGQSLVHINGNTYLHWYLQKPGQSPKLLIYKVSNLFSGVPDRFSGSGSGTDFTLKISRVEAEDLGVYFCSQSTHFPFTFGTGTKLEIK
For B1, the Tm (Thermostability (Tm); 10 min at 60-80° C., LPA binding by direct ELISA) was 67 °C, the “Apparent Tm” value (Thermostability (Tm); pH 7.4) was 67 °C at pH 7.4 and the SKOV3 tumor progression (SKOV3 tumor) was “significantly reduced”.
